From publication PMC4208696

Key:
[1] = biological target: Fl–hRyR1(1975–1999)p: hRyR1(1975–1999)p with a 5,6-carboxyfluorescein moiety at the N-terminus (human); assay: fluorescence polarisation
[2] = biological target: Fl–hRyR1(3614–3643)p: hRyR1(3614–3643)p with a 5,6-carboxyfluorescein moiety at the N-terminus (human)
[3] = biological target: Fl–hRyR1(1975–1999)p: hRyR1(1975–1999)p with a 5,6-carboxyfluorescein moiety at the N-terminus (human)

Fl–hRyR1(1975–1999)p: hRyR1(1975–1999)p with a 5,6-carboxyfluorescein moiety at the N-terminus (human), sequence (P21817 1975-1999): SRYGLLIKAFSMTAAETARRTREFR
Fl–hRyR1(3614–3643)p: hRyR1(3614–3643)p with a 5,6-carboxyfluorescein moiety at the N-terminus (human), sequence (P21817 3614-3643): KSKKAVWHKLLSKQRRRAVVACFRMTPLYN

## full-length mammalian calmodulin (CaM_(1–148)) (from UniProt P0DP23 1-149) (natural protein)
[1]
  saturation at ~100 μM CaM: > 85%
[2]
  stoichiometry N: 1
[3]
  stoichiometry N: 1
